Test: yeast display, Sf9 membrane polyspecificity reagent, FACS + sequencing; frameworks hold sequencing errors
In short: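 Using colony PCR, genes from sorted yeast display clones were amplified, then sequenced on MiSeq at 2 × 250 and filtered by CDR length. The clones had been stained with 10% biotinylated, detergent-solubilized Sf9 membrane reagent for 1 hour at 4 °C and sorted by FACS into low and high (top ~1%) gates on anti-HA and streptavidin fluorescence. Polyreactivity labels come from the gate of origin.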
In the case of “QVQLVESGGGLVQAGGSLRLSCAASGSTFGYYTMGWYRQAPGKERELVAAITGGGTTYYADSVKGRFTISRDNAKNTVYLQMNSLKPEDYAVYYCAAQARYYWGTTYEYWGQGTQVTVSS”, the “polyreactivity (PSR sort gate)” value was “high polyreactivity”. With “QVQLVESGGGLVQAGGSLRLSCAASGSTFGYYTMGWYRQAPGKERELVAAITKSGGGTYYADSVKGRFTISRDNAKNTVYLQMNSLKPEDTAVYYCNALYDYYDPYGSWGQGTQVTVSS” the “polyreactivity (PSR sort gate)” value was “high polyreactivity”. With “QVQLVESGGGLVQAGGSLRLSCAASGSTFHAYAMGWYRQAPGKEREMVAAISWRGGSTYYADSVKGRFTISRDNAKNTVYLQMNSLKPEDTAVYYCAASVQGLFGTSGLEGVDYWGQGTQVTVSS” the “polyreactivity (PSR sort gate)” value was “high polyreactivity”. For “QVQLVESGGGLVQAGGSLRLSCAASGSTFHDKAMGWYRQAPGKERELVAAITKTAGSTYYADSVKGRFTISRDNAKNTVYLQMNSMKPEDTAVYYCNAKTYHSRRKVLRFDYWGQGTQVTVSS”, the “polyreactivity (PSR sort gate)” value was “low polyreactivity”. For “QVQLVESGGGLVQAGGSLRLSCAASGSTFHHYAMGWYRQAPGKERELVAAITTSGGRTYYADSVKGRFTISRDNAKNTVYLQMNSLKPEDTAVYYCAADRFFYRGGYYYWGQGTQVTVSS”, the “polyreactivity (PSR sort gate)” value was “high polyreactivity”. In the case of “QVQLVESGGGLVQAGGSLRLSCAASGSTFHLYTMGWSRQAPGKERELVAGISRRGGTTYYADSVKGRFTISRDNAKNTVYLQMNSLKPEDTAVYYCAAVYRTYGIGPNNYWGQGTQVTVSS”, the “polyreactivity (PSR sort gate)” value was “high polyreactivity”. For “QVQLVESGGGLVQAGGSLRLSCAASGSTFHNYAMGCYRQAPGKERELVAGISVRGGGTYYADSVKGRFTISRDNAKNTVYVQMNSLKPEDTAVYYCNARSWYYVWRKGYRHGDYWGQGTQVTVSS”, the “polyreactivity (PSR sort gate)” value was “high polyreactivity”. With “QVQLVESGGGLVQAGGSLRLSCAASGSTFHPNAMGWYIQAPGKERQLVAAISRGGSTNYADSVKGRFTISRDNAKNTVYLQMNSLKPEDTAVYYCAKDFFGISSDPVDMDYWGQGTQVTVSS” the “polyreactivity (PSR sort gate)” value was “low polyreactivity”. For “QVQLVESGGGLVQAGGSLRLSCAASGSTFHPNTMGWYRQAPGKERELGARISSGGSTNYADSVKGRFTISRDNAKNTVYLQMNSLKPEDTAVYYCAARTAFSGARGRGGYWGQGTQVTVSS”, the “polyreactivity (PSR sort gate)” value was “high polyreactivity”. In the case of “QVQLVESGGGLVQAGGSLRLSCAASGSTFHSYAMGWYRQAPGKERELVAAISSSGGSTYYADSVKGRFTISRDNAKNTVYLQMNSLKPEDTAVYYCAADWRTKGYDSLGQGTQVTVSS”, the “polyreactivity (PSR sort gate)” value was “high polyreactivity”. With “QVQLVESGGGLVQAGGSLRLSCAASGSTFHTFAMGWYRPAPGKERELVAAINRRTGGTYYADSVKGRFTISRDNAKNTVDLQMNSLKPEDTAVFYCATDWFSYRGGIFDSWGQGTQVTVSS” the “polyreactivity (PSR sort gate)” value was “low polyreactivity”. In the case of “QVQLVESGGGLVQAGGSLRLSCAASGSTFHTYAMGWYRQAPGKERELVASISYGVTTYYADSVKGRFTISRDNAKNTVYLQMNSLKPEDTAVYYCAREGYKWVYLSYGYWGQGTQVTVSS”, the “polyreactivity (PSR sort gate)” value was “low polyreactivity”. With “QVQLVESGGGLVQAGGSLRLSCAASGSTFHWYTMGWYRPAPGKESELVAAITSGTSTYYADSVKGRFTISRDNSKITVYLQMNSLKPEDTAVYYCNTEGVWSVYGLYDYWGQGTQVTVSS” the “polyreactivity (PSR sort gate)” value was “low polyreactivity”. With “QVQLVESGGGLVQAGGSLRLSCAASGSTFHYYAMGWYRQAPGKERELVAAINSGARTYYADSVKGRFTISRDNAKNTVYLQMNSLKPEDTAVYYCNKAFQWSGGQVSYDFWGQGTQVTVSS” the “polyreactivity (PSR sort gate)” value was “low polyreactivity”. For “QVQLVESGGGLVQAGGSLRLSCAASGSTFHYYAMGWYRQAPGKERELVAAISYRGSTYYADSVKGRFTISRDNAKNTVYLQMNSLKPEDTAVYYCAVVSSRGRRIYGYWGQGTQVTVSS”, the “polyreactivity (PSR sort gate)” value was “high polyreactivity”. With “QVQLVESGGGLVQAGGSLRLSCAASGSTFHYYAMGWYRQAPGKERELVAAISYSGGRTYYADSVKGRFTISRDNAKNTVYLQMNSLKPEDTAVYYCAARRSRTGRDESWGQGTQVTVSS” the “polyreactivity (PSR sort gate)” value was “high polyreactivity”. In the case of “QVQLVESGGGLVQAGGSLRLSCAASGSTFIANAMGWYRKAPGKERELVAAISQSGDSTYYADSVKGRFTISRENAKNTVYLQMNSMKPEDTAVYYCAAEDVDGYEYWGQGTQVTVSS”, the “polyreactivity (PSR sort gate)” value was “high polyreactivity”. For “QVQLVESGGGLVQAGGSLRLSCAASGSTFIANTMGWYRQAPGKERELVAAITDSGGSTYYADSVKGRFTISRDNAKNTVYLQMNSLKPEDTAVYYCNADYVYVFIRAWSYDYWGQGTQVTVSS”, the “polyreactivity (PSR sort gate)” value was “low polyreactivity”. With “QVQLVESGGGLVQAGGSLRLSCAASGSTFIFNAMGWYRQAPGKERELVAAISWRVGRTYYADSVKGRFTISRDNAKNTVYLQMNSLKPEDTAVYYCAAPKSSTGHYYSWGQGTQVTVSS” the “polyreactivity (PSR sort gate)” value was “low polyreactivity”. With “QVQLVESGGGLVQAGGSLRLSCAASGSTFIFYAMGWYRQAPGKERELVATISGGGSTYYADSVKGRFTISRDNAKNTVYLQMNSLKPEDTAVYYCATDVQVPGIGRSVYAYEYWGQGTQVTVSS” the “polyreactivity (PSR sort gate)” value was “low polyreactivity”. With “QVQLVESGGGLVQAGGSLRLSCAASGSTFIFYSMGWYRQAPGKERELVAAITSSGGSTYYADSVKGRFTISRDNANNTVYLQMNSLKPEDTAVYYCITLAYTYGSKFGYWGQGTQVTVSS” the “polyreactivity (PSR sort gate)” value was “low polyreactivity”. In the case of “QVQLVESGGGLVQAGGSLRLSCAASGSTFIFYTLGWYRQAPGKERELVAAITSNGGSTYYADSVKGRFTISRDTAKKTVYLQMNSLKPEDTAVDYCAKKGVGQYDWGQGTQVTVSS”, the “polyreactivity (PSR sort gate)” value was “high polyreactivity”. In the case of “QVQLVESGGGLVQAGGSLRLSCAASGSTFIGNAMGWYRQAPGKERELVADISWSTASTYYADSVKGRFTISRDNAKNTVYLQMNSLKPEDTAVYYCARDPFVYLYLVDYDYWGQGTQVTVSS”, the “polyreactivity (PSR sort gate)” value was “low polyreactivity”. With “QVQLVESGGGLVQAGGSLRLSCAASGSTFIGYAMGWYRQAPGKERELVAAISRSDGSTYYADSVKGRFTISRDNAKNTVYLQMNSLKPEDTAVYYCNADYYRWYDYWGQGTQVTVSS” the “polyreactivity (PSR sort gate)” value was “low polyreactivity”. In the case of “QVQLVESGGGLVQAGGSLRLSCAASGSTFIGYDMGWYRQAPGKERELVAAISYSDGTYYADSVKGRFTISRDNAKNTVYLQMNSLKPEDTAVYYCAAVSLYYRYDYWGQGTQVTVSS”, the “polyreactivity (PSR sort gate)” value was “low polyreactivity”. With “QVQLVESGGGLVQAGGSLRLSCAASGSTFIGYTMGWYRQAPGKERELVAAIRYSSGRTYYADSVKGRFTISRDNAKNTVYLQMNSLKPEDTAVYYCAAANPRDHRGANDYWGQGTQVTVSS” the “polyreactivity (PSR sort gate)” value was “high polyreactivity”. In the case of “QVQLVESGGGLVQAGGSLRLSCAASGSTFIIYAMGWSRQAPGKERELVAAITRDGSTYADSVKRRFTISRDNAKNTVYLQMNRLKPEDTAVYYCAATSRQGYDYWGQGTEVTVSS”, the “polyreactivity (PSR sort gate)” value was “high polyreactivity”. In the case of “QVQLVESGGGLVQAGGSLRLSCAASGSTFIIYAMGWYRQAPGKERELVAAITWRGGTTYYADSVKGRFTISRDNAKNTVYLQMNSLKPEDTAVYYCNAKFGYPFVDYDDYWGQGTKVTVSS”, the “polyreactivity (PSR sort gate)” value was “low polyreactivity”. With “QVQLVESGGGLVQAGGSLRLSCAASGSTFIKNAMGWYRQAPGKERELVAAISSSASSTYYADSVKGRFTISRDNAKNTVYLQMNSLKPEDTAVYYCAARASRKYNYWGQGTQVTVSS” the “polyreactivity (PSR sort gate)” value was “high polyreactivity”. In the case of “QVQLVESGGGLVQAGGSLRLSCAASGSTFINYAMGWYRQAPGKERELVAAISRSGGTTYYADSVKGRFTISRDNAKNTVYLQMNSLKPEDTAVYYCNATLGSYARTRYYYWGQGTQVTVSS”, the “polyreactivity (PSR sort gate)” value was “high polyreactivity”. In the case of “QVQLVESGGGLVQAGGSLRLSCAASGSTFINYAMGWYRQAPGKERELVAAISSSGGRTYYADSVKGSFTISRDNAKNTVYFLMNSLKPEDTAVYYCAASGRKNGMNYWGQGTLVTVSS”, the “polyreactivity (PSR sort gate)” value was “high polyreactivity”. With “QVQLVESGGGLVQAGGSLRLSCAASGSTFIPNAMGWYRQAPGKERELVATIRSGGGRTYYADSVKGRFKISRDNAKNTVYLQMNSLKPEDTAVYYCAAGYYLSVQVYRFDYWGQGTQVTVSS” the “polyreactivity (PSR sort gate)” value was “high polyreactivity”. With “QVQLVESGGGLVQAGGSLRLSCAASGSTFIQNAMGWYTQAPGKERELVAAITSGGGTNYADSVKGRFTISRDNAKNTVYLQMNSLKPEDTAVYYCAAEPFNYVEFWFGWEYQYDYWGQGTQVTVSS” the “polyreactivity (PSR sort gate)” value was “low polyreactivity”. With “QVQLVESGGGLVQAGGSLRLSCAASGSTFIQYAMGWSRQAPGNERELVASIRWIGGSTYYADSVKGRFTISRDNAKNTVYLQMNSLKAEDTAVYYCAAGYEYVENGVDWYEYDYWGQGTQVTVSS” the “polyreactivity (PSR sort gate)” value was “low polyreactivity”. With “QVQLVESGGGLVQAGGSLRLSCAASGSTFIRNAMGWYRQAPGKERELVAAINSGGNTYYADSVKGRFTISRDNAKNTVYLQMNSLKPEDTAVYYCAKAWGTYRSVYYRGYYWGQGTQVTVSS” the “polyreactivity (PSR sort gate)” value was “high polyreactivity”. With “QVQLVESGGGLVQAGGSLRLSCAASGSTFIRYVMGWYRQAPGKERELVASITISVGSTYADSVKGRFTISRDNAKHTVYLQMNSLKPEDTAVYYCNARYVENTPYPYDYWGQGTQVTVSS” the “polyreactivity (PSR sort gate)” value was “low polyreactivity”. For “QVQLVESGGGLVQAGGSLRLSCAASGSTFITYAMGWYRQAPGKERELVAAISTGGSTYYADSVKGRFTISRDNAKNTVYLQMNSLKPEDTAVYYCNAYSSSRGSTLQYSLQYDYWGQGTQVTVSS”, the “polyreactivity (PSR sort gate)” value was “low polyreactivity”. With “QVQLVESGGGLVQAGGSLRLSCAASGSTFIVNAMGWYRQAPGKERELVAAISRGGSTYYADSVKGRFTISRDNAKNTVYLQMNSLKPEHTAVYYCAARIWRTRRYDYWGQGTQVTVSS” the “polyreactivity (PSR sort gate)” value was “high polyreactivity”. For “QVQLVESGGGLVQAGGSLRLSCAASGSTFIWNGIVWSRQAPGNEREWVAAITSSSTNYADSVKGRFTISRDNANNTVYVQMNSLKPEDTAVYYCAAEIYPLGSLRLGPGEYDHWGQGTQVTVSS”, the “polyreactivity (PSR sort gate)” value was “low polyreactivity”. With “QVQLVESGGGLVQAGGSLRLSCAASGSTFIYNTMGSYRQAPGKERELVATNTDSSDSTNYADSVKGRFTISRDNAKNTVYLQMNSLKPEDTAVYYCAADGEVDIATYPSQITDYDYWGQGTQVTVSS” the “polyreactivity (PSR sort gate)” value was “low polyreactivity”. For “QVQLVESGGGLVQAGGSLRLSCAASGSTFKAYAMGWYRQAPGKEMELVAVITADGSTSTHYADSVKGRFTISRDNAKNTVSLQMNSLNPEDTAVYYCAAGSPYYSERYYYWGQGTQVTVSS”, the “polyreactivity (PSR sort gate)” value was “low polyreactivity”.
